Measured values from patent US20210361735A1, “MINIGASTRIN DERIVATES, IN PARTICULAR FOR USE IN CCK2 RECEPTOR POSITIVE TUMOUR DIAGNOSIS AND/OR TREATMENT” (PAUL SCHERRER INSTITUT, priority 2017, published 2021).
Numbered stars: 1 amine (or outer) side, 2 acyl side, 3 side chain; on linkers, the order of the positions; unused ones are H or OH. Square brackets hold non-standard residues; d marks the D form. Peptide text beside a SMILES is read from it. * marks the point of attachment. X1 = CCCC[C@@H](C(=O)[*:2])n1cc([C@H](Cc2c[nH]c3ccccc23)N[*:1])nn1; X4 = C[C@H](N[*:1])c1cn([C@@H](Cc2ccc(O)cc2)C(=O)[*:2])nn1; DOTA = O=C(O)CN1CCN(CC(=O)O)CCN(CC(=O)*)CCN(CC(=O)O)CC1; X3 = O=C([C@H](Cc1c[nH]c2ccccc12)n1cc(CN[*:1])nn1)[*:2]; X2 = O=C(Cn1cc([C@H](Cc2ccc(O)cc2)N[*:1])nn1)[*:2]; Nle = CCCC[C@H](N)C(=O)O

Legend:
Fig. 4 = assay: Fig. 4
Description: (§1) Table printed on a drawing sheet, Fig. 4
(§2) Footnotes: Significant improvement / Significant drawback
First reader's note: Light grey shading of a cell marks a significant improvement and dark grey shading a significant drawback; logD was measured at pH 7.4.

Blood plasma stability = assay type: in vitro ADME; conditions: human blood plasma, 37° C.; for at least more than 2 hours; FIG. 3
Description: The ^177Lu-labelled compounds were diluted with 0.9% NaCl to a concentration of 3.75 μM and incubated (375 pmol, 100 μL, 7.5-12 MBq) in nitrogen-flushed fresh human blood plasma (1.5 mL) at 37° C. At different time points (0.5, 1, 2, 4, 6 and 24 h) aliquots (75 μL) were taken and the proteins were precipitated in CH3CN (100 μL) and centrifuged (2 min, 14680 rpm, rt). The supernatant (75 μL) was diluted with water (75 μL) and analyzed by γ-HPLC.

CCK2R = CCK2R (Homo sapiens, UniProt P32239); assay: IC50 (nM); design: Human Medullary Thyroid Cancer cells (MZ-CRCl) expressing the CCK2R; endogenous in cells; host or cells: MZ-CRC1 human medullary thyroid cancer cells
Sequence of CCK2R (P32239 whole entry, looked up): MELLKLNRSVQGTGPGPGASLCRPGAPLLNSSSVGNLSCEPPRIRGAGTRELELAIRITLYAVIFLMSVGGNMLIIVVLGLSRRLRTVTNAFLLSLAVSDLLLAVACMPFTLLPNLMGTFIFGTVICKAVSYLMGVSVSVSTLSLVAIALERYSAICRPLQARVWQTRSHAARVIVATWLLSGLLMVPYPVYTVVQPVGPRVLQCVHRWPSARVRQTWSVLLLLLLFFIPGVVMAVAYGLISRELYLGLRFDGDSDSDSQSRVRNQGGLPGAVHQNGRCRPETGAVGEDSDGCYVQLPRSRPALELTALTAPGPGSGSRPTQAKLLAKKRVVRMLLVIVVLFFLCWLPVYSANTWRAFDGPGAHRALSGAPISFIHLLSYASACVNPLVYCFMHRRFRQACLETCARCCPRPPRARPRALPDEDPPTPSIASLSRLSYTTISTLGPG
Description: as §1
Head of the field: IC50 (nM)
as §2
First copying reader's note: Light grey shading of a cell marks a significant improvement and dark grey shading a significant drawback; logD was measured at pH 7.4.
Where the first naming reader finds the target: patent_title: MINIGASTRIN DERIVATES, IN […] FOR USE IN CCK2 RECEPTOR POSITIVE TUMOUR DIAGNOSIS AND/OR TREATMENT

[1] = tested on: CCK-2 receptor positive tumours; conditions: in vivo; cited from earlier work

Compound: CCCC[C@H](NC(=O)[C@H](Cc1c[nH]c2ccccc12)NC(=O)CNC(=O)[C@H](Cc1ccc(O)cc1)n1cc([C@H](C)NC(=O)[C@@H](CCC(=O)O)NC(=O)CN2CCN(CC(=O)O)CCN(CC(=O)O)CCN(CC(=O)O)CC2)nn1)C(=O)N[C@@H](CC(=O)O)C(=O)N[C@@H](Cc1ccccc1)C(N)=O [DOTA[Nle15, Ala11-(Tz)-Tyr12]-MG11] ({DOTA}-[dE][X4]GW[Nle]DF-NH2)
- Plasma half live (Fig. 4): 16.7 h

Compound: CCCC[C@H](NC(=O)[C@H](Cc1c[nH]c2ccccc12)n1cc(CNC(=O)[C@H](Cc2ccc(O)cc2)NC(=O)[C@H](C)NC(=O)[C@@H](CCC(=O)O)NC(=O)CN2CCN(CC(=O)O)CCN(CC(=O)O)CCN(CC(=O)O)CC2)nn1)C(=O)N[C@@H](CC(=O)O)C(=O)N[C@@H](Cc1ccccc1)C(N)=O [DOTA[Nle15, Gly13-(Tz)-Trp14]-MG11] ({DOTA}-[dE]AY[X3][Nle]DF-NH2)
- Plasma half live (Fig. 4): 4.3 h

Compound: CCCC[C@@H](C(=O)N[C@@H](CC(=O)O)C(=O)N[C@@H](Cc1ccccc1)C(N)=O)n1cc([C@H](Cc2c[nH]c3ccccc23)NC(=O)CNC(=O)[C@H](Cc2ccc(O)cc2)NC(=O)[C@H](C)NC(=O)[C@@H](CCC(=O)O)NC(=O)CN2CCN(CC(=O)O)CCN(CC(=O)O)CCN(CC(=O)O)CC2)nn1 [DOTA[Nle15, Trp14-(Tz)-Nle15]-MG11] ({DOTA}-[dE]AYG[X1]DF-NH2)
- Plasma half live (Fig. 4): >24 h

Compound: CCCC[C@H](NC(=O)[C@H](Cc1c[nH]c2ccccc12)NC(=O)Cn1cc([C@H](Cc2ccc(O)cc2)NC(=O)[C@H](C)NC(=O)[C@@H](CCC(=O)O)NC(=O)CN2CCN(CC(=O)O)CCN(CC(=O)O)CCN(CC(=O)O)CC2)nn1)C(=O)N[C@@H](CC(=O)O)C(=O)N[C@@H](Cc1ccccc1)C(N)=O [DOTA[Nle15, Tyr^12-(Tz)-Gly^13]-MG11, DOTA[Nle15, Tyr12-ψ[Tz]-Gly13]-MG11] ({DOTA}-[dE]A[X2]W[Nle]DF-NH2)
- peptides remaining stable in plasma (Blood plasma stability): more than 60%

Compound: CCCC[C@H](NC(=O)[C@H](Cc1c[nH]c2ccccc12)NC(=O)CNC(=O)[C@H](Cc1ccc(O)cc1)NC(=O)[C@H](C)NC(=O)[C@@H](CCC(=O)O)NC(=O)CN1CCN(CC(=O)O)CCN(CC(=O)O)CCN(CC(=O)O)CC1)C(=O)N[C@@H](CC(=O)O)C(=O)N[C@@H](Cc1ccccc1)C(N)=O [DOTA[Nle15]-MG11, DOTA-DGlu-Ala-Tyr-Gly-Trp-Nle-Asp-Phe-NH2] ({DOTA}-[dE]AYGW[Nle]DF-NH2)
- IC50 (CCK2R): 16.1 nM

Compound: DOTA-DGlu-DGlu-DGlu-DGlu-DGlu-DGlu-Ala-Tyr-Gly-Trp-Nle-Asp-Phe-NH2 [PP-F11N]
- tumour-kidney-ratio [1]: excellent
